The record followed here is publication PMC2132938 (The Journal of Cell Biology, 1999).

Test [1] concerns the target T1, Ran (recombinant human wild-type Ran, charged with GTP or GDP) (human, UniProt P62826 1-216). The test can be described thus: co-IP.
In test [2] the target is T1, Ran (recombinant human wild-type Ran, …). The test can be described thus: co-IP. The source holds these as a separate data set.

Like-named read-outs stand apart in the source and are kept apart here.

B1: hGFP–CAS (human CAS fused to hGFP) (natural protein)
chain: MELSDANLQTLTEYLKKTLDPDPAIRRPAEKFLESVEGNQNYPLLLLTLLEKSQDNVIKVCASVTFKNYIKRNWRIVEDEPNKICEADRVAIKANIVHLMLSSPEQIQKQLSDAISIIGREDFPQKWPDLLTEMVNRFQSGDFHVINGVLRTAHSLFKRYRHEFKSNELWTEIKLVLDAFALPLTNLFKATIELCSTHANDASALRILFSSLILISKLFYSLNFQDLPEFFEDNMETWMNNFHTLLTLDNKLLQTDDEEEAGLLELLKSQICDNAALYAQKYDEEFQRYLPRFVTAIWNLLVTTGQEVKYDLLVSNAIQFLASVCERPHYKNLFEDQNTLTSICEKVIVPNMEFRAADEEAFEDNSEEYIRRDLEGSDIDTRRRAACDLVRGLCKFFEGPVTGIFSGYVNSMLQEYAKNPSVNWKHKDAAIYLVTSLASKAQTQKHGITQANELVNLTEFFVNHILPDLKSANVNEFPVLKADGIKYIMIFRNQVPKEHLLVSIPLLINHLQAESIVVHTYAAHALERLFTMRGPNNATLFTAAEIAPFVEILLTNLFKALTLPGSSENEYIMKAIMRSFSLLQEAIIPYIPTLITQLTQKLLAVSKNPSKPHFNHYMFEAICLSIRITCKANPAAVVNFEEALFLVFTEILQNDVQEFIPYVFQVMSLLLETHKNDIPSSYMALFPHLLQPVLWERTGNIPALVRLLQAFLERGSNTIASAAADKIPGLLGVFQKLIASKANDHQGFYLLNSIIEHMPPESVDQYRKQIFILLFQRLQNSKTTKFIKSFLVFINLYCIKYGALALQEIFDGIQPKMFGMVLEKIIIPEIQKVSGNVEKKICAVGITKLLTECPPMMDTEYTKLWTPLLQSLIGLFELPEDDTIPDEEHFIDIEDTPGYQTAFSQLAFAGKKEHDPVGQMVNNPKIHLAQSLHKLSTACPGRVPSMVSTSLNAEALQYLQGYLQAASVTLL
On to B1, for which, in test [1], the binding result is “binds”.

B2: transportin (human transportin/karyopherin β2, recombinant) (natural protein)
chain: MEYEWKPDEQGLQQILQLLKESQSPDTTIQRTVQQKLEQLNQYPDFNNYLIFVLTKLKSEDEPTRSLSGLILKNNVKAHFQNFPNGVTDFIKSECLNNIGDSSPLIRATVGILITTIASKGELQNWPDLLPKLCSLLDSEDYNTCEGAFGALQKICEDSAEILDSDVLDRPLNIMIPKFLQFFKHSSPKIRSHAVACVNQFIISRTQALMLHIDSFIENLFALAGDEEPEVRKNVCRALVMLLEVRMDRLLPHMHNIVEYMLQRTQDQDENVALEACEFWLTLAEQPICKDVLVRHLPKLIPVLVNGMKYSDIDIILLKGDVEEDETIPDSEQDIRPRFHRSRTVAQQHDEDGIEEEDDDDDEIDDDDTISDWNLRKCSAAALDVLANVYRDELLPHILPLLKELLFHHEWVVKESGILVLGAIAEGCMQGMIPYLPELIPHLIQCLSDKKALVRSITCWTLSRYAHWVVSQPPDTYLKPLMTELLKRILDSNKRVQEAACSAFATLEEEACTELVPYLAYILDTLVFAFSKYQHKNLLILYDAIGTLADSVGHHLNKPEYIQMLMPPLIQKWNMLKDEDKDLFPLLECLSSVATALQSGFLPYCEPVYQRCVNLVQKTLAQAMLNNAQPDQYEAPDKDFMIVALDLLSGLAEGLGGNIEQLVARSNILTLMYQCMQDKMPEVRQSSFALLGDLTKACFQHVKPCIADFMPILGTNLNPEFISVCNNATWAIGEISIQMGIEMQPYIPMVLHQLVEIINRPNTPKTLLENTAITIGRLGYVCPQEVAPMLQQFIRPWCTSLRNIRDNEEKDSAFRGICTMISVNPSGVIQDFIFFCDAVASWINPKDDLRDMFCKILHGFKNQVGDENWRRFSDQFPLPLKERLAAFYGV
In the case of B2, the binding result in test [2] is “binds”.
